T1: recombinant human OX40 fused to a His-tag (Acro Biosystems, cat. no. OX0-H5224) (human, UniProt P43489 29-214)
T1 construct: bought protein; also called sOX40; soluble OX40; not shown: His-tag
T1 sequence: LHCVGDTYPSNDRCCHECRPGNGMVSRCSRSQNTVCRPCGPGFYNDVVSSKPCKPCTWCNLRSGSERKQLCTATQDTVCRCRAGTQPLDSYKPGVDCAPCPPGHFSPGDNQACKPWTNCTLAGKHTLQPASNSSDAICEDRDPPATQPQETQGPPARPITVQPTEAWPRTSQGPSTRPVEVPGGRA

T2: recombinant cynomolgus monkey OX40 (Acro Biosystems, cat. no. OX0-C5220) (cynomolgus monkey (Macaca fascicularis), UniProt P43489 29-214 (human entry))
T2 construct: bought protein; also called Cyno OX40
T2 chain: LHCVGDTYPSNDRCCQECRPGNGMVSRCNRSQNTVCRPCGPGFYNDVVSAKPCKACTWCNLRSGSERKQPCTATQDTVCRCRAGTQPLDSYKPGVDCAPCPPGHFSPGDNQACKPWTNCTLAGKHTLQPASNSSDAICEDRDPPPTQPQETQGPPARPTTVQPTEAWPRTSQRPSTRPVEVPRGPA


Assays:
[1] = target: T1, recombinant human OX40 fused to a …; experiment: BLI cross-block; first Ab (competitor): IgG1-CD134-MEDI0562
Description: (§1) Amine Reactive 2nd Generation (AR2G) biosensors (Sartorius, cat. no. 18-5092) were activated for 300 s with a solution of 20 mM EDC (N-(3-Dimethylaminopropyl)-N-ethylcarbodiimide hydrochloride; Sartorius, cat. no. 18-1033) and 10 mM s-NHS (N-hydroxysulfosuccinimide sodium salt; Sartorius, cat. no. 18-1067). […] After a baseline measurement in Sample Diluent (Sartorius, cat. no. 18-1104) for 50 s, the AR2G biosensors containing immobilized antibody were loaded for 300 s with human OX40 fused to a His-tag (100 nM diluted in Sample Diluent; Acro Biosystems, cat. no. OX0-H5224). The association (300 s) of a second antibody (10 μg/mL in Sample Diluent) was determined. Sensors were regenerated by three cycles of exposure to 10 mM Glycine (Sigma-Aldrich, cat. no. 15527) buffer pH 2.5 for 5 s followed by neutralization in Sample Diluent for 5 s.
(§2) Data were acquired using Data Acquisition Software v12.0 (Sartorius) and analyzed with Data Analysis HT Software v12.0 (Sartorius). Data traces were corrected by subtraction of a reference curve (Sample Diluent instead of second antibody) in order to correct for the dissociation of antigen from the immobilized first antibody. The Y-axis was aligned to the start of the association step and Savitzky-Golay filtering was applied. The corrected association responses of the second antibodies were plotted in a matrix format (Table 5). Responses ≥0.1 nm were considered non-blocking antibody pairs, while responses <0.1 were considered blocking antibody pairs.

[2] = target: T1, recombinant human OX40 fused to a …; experiment: BLI cross-block; first Ab (competitor): IgG1-CD134-Hu106
Description: as §1, §2

[3] = target: T1, recombinant human OX40 fused to a …; experiment: BLI cross-block; first Ab (competitor): IgG1-CD134-ABBV368
Description: (§3) Experiments were carried out while shaking at 1,000 RPM and at 30° C.
as §1, §2

[4] = target: T1, recombinant human OX40 fused to a …; experiment: BLI cross-block; first Ab (competitor): IgG1-CD134-003
Description: as §3, §1, §2

[5] = target: T1, recombinant human OX40 fused to a …; experiment: BLI cross-block; first Ab (competitor): IgG1-CD134-h3C8
Description: as §1, §2

[6] = target: T1, recombinant human OX40 fused to a …; experiment: BLI, Ab on AHC sensor, OX40 analyte
Description: (§4) Experiments were carried out while shaking at 1,000 RPM at 30° C. […] Next, AHC sensors were loaded with antibody (1 μg/mL in Sample Diluent) for 600 s. After a baseline measurement in sample diluent (100 s), the association (200 s) and dissociation (1,000 s) of human OX40 (Acro Biosystems, cat. no. OX0-H5224), and cynomolgus monkey OX40 (Acro Biosystems, cat. no. OX0-C5220) was determined using a concentration range of 0.78 to 800 nM with 2-fold dilution steps.
(§5) The theoretical molecular masses of the antigens based on the amino acid sequences were used for calculations. For each antibody, a reference sensor was used which was incubated with Sample Diluent instead of antigen. AHC sensors were regenerated by exposure to 10 mM glycine buffer pH 1.7 for 5 s, followed by neutralization in Sample Diluent for 5 s; both steps were repeated twice. Subsequently sensors were loaded again with antibody for the next cycle of kinetic measurements.
(§6) Data were acquired using Data Acquisition Software v12.0 (Sartorius) and analyzed with Data Analysis Software v12.0 (Sartorius). Data traces were corrected per antibody by subtraction of the reference sensor. The Y-axis was aligned to the last 10 s of the baseline and Interstep Correction alignment to dissociation as well as Savitzky-Golay filtering were applied. Data traces with a response <0.05 nm were excluded from analysis. […] The data was fitted with the 1:1 model using a window of interest for the association of 200 s and dissociation times set at 50 s, 200 s and 1,000 s. The dissociation time was chosen based upon R² value, visual inspection of the curve and at least 5% signal decay during the dissociation step.

[7] = target: T2, recombinant cynomolgus monkey OX40 …; experiment: BLI, Ab on AHC sensor, OX40 analyte
Description: as §4, §5, §6

[8] = target: T1, recombinant human OX40 fused to a …; experiment: BLI cross-block; first Ab (competitor): IgG1-CD134-GBR830
Description: as §3, §1, §2

[9] = target: T1, recombinant human OX40 fused to a …; experiment: BLI cross-block; first Ab (competitor): IgG1-CD134-A4453
Description: as §1, §2

[10] = target: T1, recombinant human OX40 fused to a …; experiment: BLI cross-block; first Ab (competitor): IgG1-CD134-RG7888
Description: as §1, §2

Row | Binder | association response [1] | association response [2] | association response [3] | association response [4] | association response [5] | Kd [6] | koff [6] | kon [6] | Kd [7] | koff [7] | kon [7] | association response [8] | association response [9] | association response [10]
1 | IgG1-CD134-003-HC6LC2-P329R-E345R (antibody, humanized; human IgG1 with P329R and E345R (Eu numbering), kappa; also called IgG1-CD134-003-HC6LC2-RR) heavy: not shown light: AAVLTQSPSSLSASVGDRVTITCQSSQIVVNNNFLSWYQQKPGKAPKLLIYDASNLASGVPDRFSGSGSGTDFTFTISSLQPEDIATYYCLGGYDDDAENAFGGGTKVEIKRTVAAPSVFIFPPSDEQLKSGTASVVCLLNNFYPREAKVQWKVDNALQSGNSQESVTEQDSKDSTYSLSSTLTLSKADYEKHKVYACEVTHQGLSSPVTKSFNRGEC | 0.34 nm | 0.74 nm | 0.85 nm | 0.04 nm | 0.5 nm | 3.4 nM | 0.00086 s⁻¹ | 250000 M⁻¹ s⁻¹ | 27 nM | 0.0029 s⁻¹ | 110000 M⁻¹ s⁻¹ | 0.19 nm | 0.31 nm | 0.65 nm
2 | IgG1-CD134-012 (antibody, rabbit-human chimeric IgG1) heavy: not shown light: DIVMTQTPASVEAAVGGTVTIKCQASENIYSSLAWYQQKPGQPPKLLIYRTSTLASGVPSRFKGSGSGTQFTLTISDLESDDAATYYCQSYYHNSGGGYDYGFGGGTEVVAKRTVAAPSVFIFPPSDEQLKSGTASVVCLLNNFYPREAKVQWKVDNALQSGNSQESVTEQDSKDSTYSLSSTLTLSKADYEKHKVYACEVTHQGLSSPVTKSFNRGEC | 0.23 nm | 0.51 nm | 0.51 nm | 0 nm | 0.35 nm | 11 nM | 0.0016 s⁻¹ | 140000 M⁻¹ s⁻¹ | – | – | – | 0.16 nm | 0.22 nm | 0.42 nm

The next binders have a lower Kd [6] than those just listed; values first:

Row | association response [1] | association response [2] | association response [3] | association response [4] | association response [5] | Kd [6] | koff [6] | kon [6] | Kd [7] | koff [7] | kon [7] | association response [8] | association response [9] | association response [10] | Binder
3 | 0.32 nm | 0 nm | -0.05 nm | -0.02 nm | -0.02 nm | 2 nM | 0.00075 s⁻¹ | 380000 M⁻¹ s⁻¹ | 7.1 nM | 0.0018 s⁻¹ | 260000 M⁻¹ s⁻¹ | 0 nm | 0.28 nm | 0.64 nm | IgG1-CD134-007 (antibody, rabbit-human chimeric IgG1) heavy: not shown light: AQVLTQTPSPVSAAVGGTVTISCQSSESVWNNNWLAWYQQKPGQPPNLLIYEASTLASGVSSRFKGSGSGTQFTLTVSEVQSDDAATYYCQGGYYDSSPIWTFGGGTEVVVKRTVAAPSVFIFPPSDEQLKSGTASVVCLLNNFYPREAKVQWKVDNALQSGNSQESVTEQDSKDSTYSLSSTLTLSKADYEKHKVYACEVTHQGLSSPVTKSFNRGEC
4 | 0.3 nm | 0.64 nm | 0.72 nm | 0.02 nm | 0.46 nm | 1.1 nM | 0.00035 s⁻¹ | 330000 M⁻¹ s⁻¹ | 3.5 nM | 0.00096 s⁻¹ | 280000 M⁻¹ s⁻¹ | 0.2 nm | 0.26 nm | 0.66 nm | IgG1-CD134-003 (antibody, rabbit-human chimeric IgG1, wild-type Fc; also called parental chimeric antibody) heavy: not shown light: AAVLTQTPSPVSAAVGGTVTIKCQSSQIVVNNNFLSWYQQKPGQPPKLLIYDASNLASGVPDRFSGSGSGTQFTLTISGVQSDDAATYYCLGGYDDDAENAFGGGTEVVVQRTVAAPSVFIFPPSDEQLKSGTASVVCLLNNFYPREAKVQWKVDNALQSGNSQESVTEQDSKDSTYSLSSTLTLSKADYEKHKVYACEVTHQGLSSPVTKSFNRGEC
